The source of these data is IntAct's records for PubMed 7518772.

To fix the notation:
B1: Receptor-type tyrosine-protein phosphatase alpha (Mus musculus), P18052 (parent)
chain: MDSWFILVLFGSGLIHVSANNATTVSPSLGTTRLIKTSTTELAKEENKTSNSTSSVISLSVAPTFSPNLTLEPTYVTTVNSSHSDNGTRRAASTESGGTTISPNGSWLIENQFTDAITEPWEGNSSTAATTPETFPPADETPIIAVMVALSSLLVIVFIIIVLYMLRFKKYKQAGSHSNSFRLSNGRTEDVEPQSVPLLARSPSTNRKYPPLPVDKLEEEINRRMADDNKLFREEFNALPACPIQATCEAASKEENKEKNRYVNILPFLSLAVSKDAVKALNKTTPLLERRFIGKSNSRGCLSDDHSRVHLTPVEGVPDSDYINASFINGYQEKNKFIAAQGPKEETVNDFWRMIWEQNTATIVMVTNLKERKECKCAQYWPDQGCWTYGNVRVSVEDVTVLVDYTVRKFCIQQVGDVTNRKPQRLITQFHFTSWPDFGVPFTPIGMLKFLKKVKACNPQYAGAIVVHCSAGVGRTGTFVVIDAMLDMMHSERKVDVYGFVSRIRAQRCQMVQTDMQYVFIYQALLEHYLYGDTELEVTSLETHLQKIYNKIPGTSNNGLEEEFKKLTSIKIQNDKMRTGNLPANMKKNRVLQIIPYEFNRVIIPVKRGEENTDYVNASFIDGYRQKDSYIASQGPLLHTIEDFWRMIWEWKSCSIVMLTELEERGQEKCAQYWPSDGLVSYGDITVELKKEEECESYTVRDLLVTNTRENKSRQIRQFHFHGWPEVGIPSDGKGMINIIAAVQKQQQQSGNHPITVHCSAGAGRTGTFCALSTVLERVKAEGILDVFQTVKSLRLQRPHMVQTLEQYEFCYKVVQEYIDAFSDYANFK

Variants of B1 are the subject of this test. Particulars: with src_mouse Src.
Turning to Y825F, the “effect of a mutation on the interaction” value is “disrupting interaction”.
